For 2 substances, stoichiometry N results are on record in PMC3540129.

The target in test [1] is Kv7.4 (KCNQ4) B segment (Q4B, residues 522-557), tag removed (human) (UniProt P56696). Description: SEC-MALS. Background: SEC sorts molecules by how far they enter the pores of the column.
The target in test [2] is Kv7.5 (KCNQ5) B-D construct (Q5BD), tag removed (human) (UniProt Q9NR82). Description: SEC.

Sequence of UniProt P56696 (P56696 522-557): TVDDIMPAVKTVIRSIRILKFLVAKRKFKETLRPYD

Broadly, the stoichiometry N is a count of units in the complex or per binding partner. As for “Calmodulin (CaM), full-length native (from UniProt P0DP23 1-149) (natural protein)”, the stoichiometry N in test [1] came to 1. For “Kv7.5 (KCNQ5) B-D construct (Q5BD), tag removed (from UniProt Q9NR82 1-932) (domain or fragment)”, the stoichiometry N in test [2] was 4.
